± gives the standard deviation of the averaged measurements.
B1: library; a variant is named by its letters at X, in order (parent)
chain: MNIQIGELAKRTACPVVTIRFYEQEGLLPPPGRSRGNFRLYGEEHVERLQFIRHCRSLDMPLSDVRTLLSYRKRPDQDCGEVXMLLDEHIRQVESRIGALLELKHHLVELREACSGARPAQSCGILQXLSXCVCXTRGTTAHXSD

Experiments:
[1] = variants of: B1; assay: sfGFP reporter fluorescence (15 h) (µM FITC); higher = higher leak; conditions: library round: Round 2; ligand: none
Protocol: (§1)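 Cell-free biosensing: 1 µL Echo-assembled CFE reactions with linear PbrR variant templates (5 nM) and pPbrR-sfGFP reporter, with 1 µM Pb, 30 µM Zn or no ligand; endpoint sfGFP fluorescence after 15 h at 30 °C calibrated as µM FITC. Round 2 ML-predicted PbrR mutants; up to 3 biological replicates.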

[2] = variants of: B1; assay: sfGFP reporter fluorescence (15 h) (µM FITC); higher = stronger transcriptional activation; conditions: library round: Round 2
Protocol: as §1

| Variant | sfGFP reporter fluorescence [1] | sfGFP reporter fluorescence ([2]; ligand: 1 µM Pb) | sfGFP reporter fluorescence ([2]; ligand: 30 µM Zn) |
| --- | --- | --- | --- |
| NGDPP M84A R111A | 0.0671 ± 0.0045 | 0.0854 ± 0.013 | 0.919 ± 0.12 |
| NGDAP E109D G124A | 0.0638 ± 0.0036 | 0.0745 ± 0.0045 | 0.474 ± 0.07 |
| NIDDP P61N D64K K104V L107A | 0.0923 ± 0.0059 | 0.215 ± 0.018 | 1.34 ± 0.1 |
| THDDW | 0.0458 ± 0.0021 | 0.0682 ± 0.011 | 0.0889 ± 0.0029 |
| NGDAP P61N V108E | 0.0745 ± 0.0048 | 0.129 ± 0.01 | 1.48 ± 0.14 |
| NTDAP L107C | 0.819 ± 0.064 | 1.7 ± 0.12 | 3.23 ± 0.041 |
| NHDAW | 0.0656 ± 0.0096 | 0.117 ± 0.0091 | 0.55 ± 0.081 |
| NIDDP D64K V108E | 0.181 ± 0.026 | 0.581 ± 0.051 | 3.32 ± 0.42 |
| NGDDR V108L T139A | 0.0498 ± 0.0012 | 0.068 ± 0.0054 | 0.809 ± 0.081 |
| NGDAL L110I | 0.0605 ± 0.0082 | 0.0575 ± 0.0038 | 0.953 ± 0.064 |
| NGDAY L110V | 0.0649 ± 0.005 | 0.0584 ± 0.0031 | 0.445 ± 0.032 |
| NGYAP S95G | 0.0664 ± 0.003 | 0.0795 ± 0.0044 | 1.03 ± 0.072 |
| NGDDP P61N D64K V108M | 0.154 ± 0.014 | 0.461 ± 0.026 | 2.33 ± 0.24 |
| TGDDL T139A | 0.0436 ± 0.001 | 0.0619 ± 0.0082 | 0.241 ± 0.015 |
| TGDDY I125L | 0.0486 ± 0.0014 | 0.0429 ± 0.0049 | 0.0494 ± 0.0015 |
| SGDAA | 0.0628 ± 0.0043 | 0.0745 ± 0.0027 | 0.449 ± 0.062 |
| NIDDP L107C G124A | 0.942 ± 0.1 | 2.53 ± 0.21 | 3.41 ± 0.84 |
| NGDAP L129I H142A | 0.0458 ± 0.0024 | 0.0491 ± 0.0012 | 0.302 ± 0.012 |
| NTDDP P61N D64K L107C | 2.26 ± 0.67 | 2.58 ± 0.67 | 3.04 ± 0.32 |
| SGDVP K104V | 0.067 ± 0.0056 | 0.134 ± 0.0074 | 1.3 ± 0.15 |
| NGDDP D64K V108E R111L | 0.0746 ± 0.0031 | 0.165 ± 0.012 | 1.8 ± 0.29 |
| NHDDA V108L | 0.0477 ± 0.0017 | 0.0671 ± 0.0043 | 0.271 ± 0.03 |

| Variant | sfGFP reporter fluorescence [1] | sfGFP reporter fluorescence ([2]; ligand: 1 µM Pb) | sfGFP reporter fluorescence ([2]; ligand: 30 µM Zn) |
| --- | --- | --- | --- |
| TGAAP | 0.0444 ± 0.0012 | 0.0747 ± 0.0046 | 0.359 ± 0.0081 |
| NIDDP M60L P61N K104V L107C | 0.315 ± 0.042 | 1.19 ± 0.096 | 2.16 ± 0.42 |
| NGDDP P61N L107C C134I | 2.22 ± 0.18 | 2.54 ± 0.38 | 3.82 ± 0.36 |
| SADAP | 0.0791 ± 0.013 | 0.19 ± 0.019 | 2.33 ± 0.44 |
| NGSPA | 0.0677 ± 0.013 | 0.114 ± 0.019 | 0.999 ± 0.13 |
| NIDDP P61N C134E | 0.308 ± 0.021 | 0.544 ± 0.11 | 3.19 ± 0.055 |
| NMDAK L107C | 2.86 ± 0.17 | 3.46 ± 0.15 | 3.68 ± 0.19 |
| TGADP V108L | 0.0451 ± 0.00078 | 0.0942 ± 0.0052 | 0.321 ± 0.0054 |
| NGDDP M60F P61N D64K K104V | 0.395 ± 0.16 | 0.744 ± 0.16 | 2.04 ± 0.33 |
| TGDRP V108L | 0.0448 ± 0.0017 | 0.0788 ± 0.0022 | 0.327 ± 0.012 |
| NMDDP I3M P61N K104V L107C | 0.501 ± 0.013 | 0.989 ± 0.041 | 2.79 ± 0.18 |
| NGADP V133P C134V | 0.0817 ± 0.0086 | 0.0967 ± 0.019 | 2.1 ± 0.36 |
| TGDDM V108L | 0.0605 ± 0.0032 | 0.0645 ± 0.0026 | 0.209 ± 0.025 |
| TGDDP R96A K104V L107I | 0.0526 ± 0.0017 | 0.0483 ± 0.0032 | 0.0559 ± 0.002 |
| NMDAP L85I | 0.11 ± 0.012 | 0.278 ± 0.017 | 3.11 ± 0.44 |
| TGCDA | 0.0468 ± 0.0016 | 0.0758 ± 0.0041 | 0.0857 ± 0.0083 |
| IGDDR K104V H106A | 0.0522 ± 0.00085 | 0.136 ± 0.0052 | 0.0496 ± 0.0028 |
| NGDAP D64T Q127G | 0.0728 ± 0.0058 | 0.121 ± 0.013 | 1.87 ± 0.15 |
| NGDAP M60L D64K | 1.45 ± 1.3 | 1.27 ± 0.82 | 3.35 ± 0.63 |
| NGDDP D64K K104V R111A | 0.0829 ± 0.0096 | 0.354 ± 0.017 | 2.2 ± 0.44 |
| NGCAY | 0.0505 ± 0.0017 | 0.0635 ± 0.0058 | 0.277 ± 0.0034 |
| TGDRP L107C | 0.176 ± 0.016 | 1.17 ± 0.063 | 2.94 ± 0.2 |

Source: the supplement of paper PMC12783771
